Data published in paper PMC9765618, “PML Body Component Sp100A Is a Cytosolic Responder to IFN and Activator of Antiviral ISGs” (mBio, 2022).

Target: T1, bacterially purified His-tagged hemagglutinin (HA)-PKM2 (human, UniProt P14618 1-531)
T1 construct: pyruvate kinase 2 (PKM2), human; also called His-HA-PKM2
Test: pull-down
Conditions: both partners purified

T1 sequence (P14618 whole entry): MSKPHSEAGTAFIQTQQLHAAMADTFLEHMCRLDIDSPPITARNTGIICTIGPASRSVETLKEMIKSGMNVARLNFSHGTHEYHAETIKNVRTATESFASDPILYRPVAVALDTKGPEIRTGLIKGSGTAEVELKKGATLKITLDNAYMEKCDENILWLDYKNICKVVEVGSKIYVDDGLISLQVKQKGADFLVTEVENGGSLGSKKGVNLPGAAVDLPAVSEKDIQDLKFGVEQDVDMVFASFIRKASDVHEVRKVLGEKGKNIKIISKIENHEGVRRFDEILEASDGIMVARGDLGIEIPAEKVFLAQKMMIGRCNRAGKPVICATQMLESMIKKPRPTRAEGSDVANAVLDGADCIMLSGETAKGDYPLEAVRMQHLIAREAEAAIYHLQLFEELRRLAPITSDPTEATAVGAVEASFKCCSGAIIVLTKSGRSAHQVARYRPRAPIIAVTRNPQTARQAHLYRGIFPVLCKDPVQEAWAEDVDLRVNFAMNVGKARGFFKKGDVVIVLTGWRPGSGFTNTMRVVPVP

- binding result: binds
B1: bacterially purified GST-tagged Sp100A (natural protein)
chain: not shown
notes: Sp100A, isoform A of human Sp100; also called GST-Sp100A
